Laboratory results as given in patent US20250066490A1, “ANTI-CD70 ANTIBODIES, CONJUGATES THEREOF AND METHODS OF USING THE SAME” (ProfoundBio US Co., priority 2021, published 2025).

T1: CD70 ECD (Homo sapiens, UniProt P32970)
T1 sequence (P32970 39-193 limits assumed): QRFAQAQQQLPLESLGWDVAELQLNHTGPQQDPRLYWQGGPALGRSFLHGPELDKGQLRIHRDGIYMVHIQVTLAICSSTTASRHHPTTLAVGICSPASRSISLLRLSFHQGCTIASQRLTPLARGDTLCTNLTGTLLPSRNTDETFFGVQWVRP

T2: human CD70 extra-cellular domain (ECD) (Homo sapiens, UniProt P32970)
T2 construct: human, rat, or mouse CD70 extra-cellular domain (ECD) linked to His tag; His tag; purchased ACRO systems
T2 sequence (P32970 39-193 limits assumed): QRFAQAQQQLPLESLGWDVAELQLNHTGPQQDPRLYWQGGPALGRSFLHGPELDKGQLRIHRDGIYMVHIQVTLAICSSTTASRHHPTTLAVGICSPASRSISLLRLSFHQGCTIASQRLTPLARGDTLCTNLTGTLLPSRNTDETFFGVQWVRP

T3: rat CD70 extra-cellular domain (ECD) (Rattus norvegicus, UniProt M0R613)
T3 construct: human, rat, or mouse CD70 extra-cellular domain (ECD) linked to His tag; His tag; purchased ACRO systems
T3 sequence (M0R613 1-194): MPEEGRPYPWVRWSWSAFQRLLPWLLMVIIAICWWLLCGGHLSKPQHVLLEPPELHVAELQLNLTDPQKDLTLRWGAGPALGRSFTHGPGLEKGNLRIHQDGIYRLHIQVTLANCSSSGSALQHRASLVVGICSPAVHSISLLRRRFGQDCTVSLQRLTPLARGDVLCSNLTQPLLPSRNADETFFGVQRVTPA

T4: mouse CD70 extra-cellular domain (ECD) (Mus musculus, UniProt O55237)
T4 construct: human, rat, or mouse CD70 extra-cellular domain (ECD) linked to His tag; His tag; purchased ACRO systems
T4 sequence (O55237 45-195): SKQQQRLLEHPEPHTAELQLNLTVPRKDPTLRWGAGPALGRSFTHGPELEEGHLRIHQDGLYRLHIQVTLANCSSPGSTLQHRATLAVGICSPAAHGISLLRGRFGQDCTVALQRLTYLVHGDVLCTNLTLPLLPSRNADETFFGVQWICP


Assays:
CD70 ECD = target: T1, CD70 ECD; experiment: Biacore affinity measurement on immobilized CD70 ECD; format: binding; details: 25° C., CD70 immobilized
Protocol: The immobilization of antigen CD70 ECD was performed at 25° C. with HBS-EP as the running buffer. Sensor chip surface of flow cells 1, 4 were activated by freshly mixed 50 mmol/L N-Hydroxy succinimide (NHS) and 200 mmol/L 1-ethyl-3-(3-dimethylaminopropyl) carbodiimide hydrochloride (EDC) for 420s (10 μL/min). Afterwards, CD70 antigen diluted in 10 mmol/L NaAC (pH 4.5) was injected into flow cell 4 to achieve conjugation of the appropriate Response Unit, while flow cell 1 was set as a blank. After the amine coupling reaction, the remaining active coupling sites on chip surface were blocked by 420s injection of 1 mol/L ethanolamine hydrochloride.
The assay was performed at 25° C. and the running buffer was HBS-EP. Diluted antibodies were injected over the surface of flow cells 1 and 4 during the association phase, followed by injecting running buffer as the dissociation phase. All the data were processed using Biacore T200 Evaluation software version 3.1. Flow cell 1 and a blank injection of buffer in each cycle were used as a double reference for Response Units subtraction. Kinetic data of the interaction between the antibodies and CD70 antigen were obtained through affinity measurement.

[1] = Hydrophobic interaction chromatography (HIC); format: physicochemical; details: full IgG; for Retention time: hydrophobicity by HIC
Protocol: Antibodies were purified from cleared cell culture supernatants using Protein A chromatography (Protein A resin slurry, 4.5 mL, Bogen, Cat #18-0010-02). Briefly, supernatants were prepared for affinity chromatography and loaded onto the columns and allowed to flow completely through the resin. The columns were washed with binding buffer containing 0.15M NaCl and 0.2M PB, PH7.0. Antibody was eluted with elution buffer containing 0.15M NaCl, 0.1M Glycine and 0.2M PB, PH 3.0. Fractions were collected and neutralized by the addition of 1/10 volume of 1M Tris, PH9.0. The fractions were dialyzed for 2 hours against 1×PBS. Purified antibody was quantified by absorbance at A280. Samples from each step of the protein A chromatography were applied onto 12% SDS-PAGE gels for reduced and non-reduced electrophoresis. The hydrophobicity was assessed with hydrophobic interaction chromatography (HIC) on a TSK gel Butyl-NPR, 4.6×100 mm with Butyl-NPR (Tosoh corporation) using a Waters HPLC 2695 system.

[2] = test system: 786-O, Caki-1, U251 and DBTRG-05MG cells; experiment: Antibody binding by flow cytometry, statements across all four tumor cell lines; set-up: species or system human; details: range over the four cell lines
Protocol: The lead antibodies were tested for binding to renal carcinoma cells and glioblastoma cells expressing CD70 on the cell surface by flow cytometry. Cell lines 786-O (ATCC® CRL-1932™, provided by COBIOER), Caki-1 (ATCC® HTB-46™, provided by COBIOER), U251 and DBTRG-05MG (ATCC® CRL-2020™, provided by COBIOER) were each tested for antibody binding. 786-O cells were cultured with RPMI 1640 medium (Gibco, Cat #11875093) containing of 10% FBS (Gibco, Cat #10099141) while Caki-1 cells were cultured with McCoy's 5a Modified medium (Gibco, Cat #16600082) containing 10% FBS. U251 cells were cultured with MEM medium containing of 10% FBS and 1% NEAA+1 mM sodium pyruvate. DBTRG-05MG cells were cultured with DMEM medium (Gibco, Cat #C11995500BT) containing of 10% FBS. Each of the lead antibodies and the controls were incubated for 30 mins with the different cell lines (3×10^5 cells per well) in 0.2 ml FACS buffer (1×PBS with 0.1% BSA) at 4° C. Then, the cells were pelleted, washed, and incubated at 4° C. for 30 mins with 100 μl of 1:200 diluted PE-conjugated anti human Fc (Abcam, Ab98596) in FACS buffer. The cells were pelleted again, washed with PBS, resuspended in FACS buffer and analyzed by flow cytometer (Beckman, CytoFLEX).

[3] = target: T2, human CD70 extra-cellular domain (ECD); experiment: Biolayer interferometry (BLI), human CD70; format: binding
Protocol: (§1) Recombinant proteins consisting of human, rat, or mouse CD70 extra-cellular domain (ECD) linked to His tag was purchased (from ACRO systems). 69A7 and 2E7 (20 nM) were immobilized on anti-human IgG Fc biosensor tips (ForteBio). Binding assays using one concentration (100 nM) of recombinant protein in solution were performed using Octet RED (ForteBio). Association time was set at 180s and dissociation time was set at 300s. Binding affinity was calculated using ForteBio Data Acquisition 6.3 software. Affinity was derived by fitting the kinetic data to a 1:1 Langmuir binding model utilizing global fitting algorithms. […] Binding assays for 2E7 using multiple dilutions (from 200 nM down to 3.13 nM) of species' recombinant CD70 ECD proteins in solution were also performed using the same method.

[4] = target: T3, rat CD70 extra-cellular domain (ECD); experiment: Biolayer interferometry (BLI), rat CD70; format: binding
Protocol: as §1

[5] = target: T4, mouse CD70 extra-cellular domain (ECD); experiment: Biolayer interferometry (BLI), mouse CD70; format: binding
Protocol: as §1

[6] = Hu CD70 100 nM, one concentration
[7] = one concentration (100 nM), Table 9

| Rmax (RU) (CD70 ECD) | ka (CD70 ECD) [M⁻¹ s⁻¹] | kd (CD70 ECD) [s⁻¹] | EC50 relative to that of antibody 69A7 [2] | Response [3, 6] | ka [3, 6] [M⁻¹ s⁻¹] | Kd ([3]; human CD70, one concentration (100 nM), read-out: equilibrium dissociation constant (KD)) [nM] | Response ([4]; Rat CD70 100 nM, one concentration, *Response below range of quantification) | ka ([4]; Rat CD70 100 nM, one concentration, response below range of quantification) [M⁻¹ s⁻¹] | cross-reactivity to rat CD70 [4, 7] | Response ([5]; MS CD70 100 nM, one concentration, *Response below range of quantification) | ka ([5]; MS CD70 100 nM, one concentration, response below range of quantification) [M⁻¹ s⁻¹] | cross-reactivity to mouse CD70 [5, 7] | Molecule | hydrophobicity compared with the parent antibody 69A7 ([1]; HIC) | Retention time [1] [min] |
| --- | --- | --- | --- | --- | --- | --- | --- | --- | --- | --- | --- | --- | --- | --- | --- |
| 19.27 | 45100 | 0.00236 |  |  |  |  |  |  |  |  |  |  | Vorsetuzumab (antibody, V domains shown, Synthetic h1F6 VH amino acid sequence; Synthetic h1F6 VL amino acid sequence) VH: QVQLVQSGAEVKKPGASVKVSCKASGYTFTNYGMNWVRQAPGQGLKWMGWINTYTGEPTYADAFKGRVTMTRDTSISTAYMELSRLRSDDTAVYYCARDYGDYGMDYWGQGTTVTVSS VL: DIVMTQSPDSLAVSLGERATINCRASKSVSTSGYSFMHWYQQKPGQPPKLLIYLASNLESGVPDRFSGSGSGTDFTLTISSLQAEDVAVYYCQHSREVPWTFGQGTKVEIK |  |  |
| 45.47 | 51000 | 0.00197 | 1.7-2.2 times |  |  |  |  |  |  |  |  |  | 2A4P0L1: new VH/VL combination derived from the VH of 2A4 and the VL of 2D2 (antibody, V domains shown) VH: QVQLQESGPGLVKPSETLSLTCTVSGGSVSSDYYYWSWIRQPPGKGLEWLGYIYYSGSTNYNPSLKSRVTISVDTSKNQFSLKLRSVTTADTAVYYCARGDGDYGGNVFPYWGQGTLVTVSS VL: EIVLTQSPATLSLSPGERATLSCRASQSVSSYLAWYQQKPGQAPRLLIFDASNRATGIPARFSGSGSGTDFTLTISSLEPEDFAVYYCQQRLKFPLTFGGGTKVEIK | slightly more hydrophobic than the parent antibody 69A7 | 9.56 |
|  |  |  |  |  |  |  |  |  |  |  |  |  | 2A4: anti-CD70 antibody clone, VH SEQ 3 and VL SEQ 4; scFv and full human IgG1/kappa (antibody, V domains shown) VH: QVQLQESGPGLVKPSETLSLTCTVSGGSVSSDYYYWSWIRQPPGKGLEWLGYIYYSGSTNYNPSLKSRVTISVDTSKNQFSLKLRSVTTADTAVYYCARGDGDYGGNVFPYWGQGTLVTVSS VL: EIVLTQSPATLSLSPGERATLSCRASQSVSSYLAWYQQKPGQAPRLLIFDASNRATGIPARFSGSGSGTDFTLTISSLEPEDFAVYYCQQRSNWPLTFGGGTKVEIK |  | 9.06 |
| 38.01 | 6330 | 0.00198 |  | 0.3334 | 338700 | 2.9 | *0.0198 | 94250 | no cross-reactivity | *0.0113 | 1494 | no cross-reactivity | 69A7: parent anti-CD70 antibody (U.S. Pat. No. 8,124,738B2), VH/VL SEQ ID NOs: 1 and 2 (antibody, V domains shown, Synthetic 69A7 VH amino acid sequence; Synthetic 69A7 VL amino acid sequence) VH: QVQLQESGPGLVKPSETLSLTCTVSGGSVSSDYYYWSWIRQPPGKGLEWLGYIYYSGSTNYNPSLKSRVTISVDTSKNQFSLKLRSVTTADTAVYYCARGDGDYGGNCFDYWGQGTLVTVSS VL: EIVLTQSPATLSLSPGERATLSCRASQSVSSYLAWYQQKPGQAPRLLIFDASNRATGIPARFSGSGSGTDFTLTISSLEPEDFAVYYCQQRSNWPLTFGGGTKVEIK |  | 8.83 |
